# Test results: US10280205B2, “Method for treating cancer with an activated T lymphocyte that selectively recognizes a cancer cell consisting of specific peptide” (immatics biotechnologies GmbH, priority 2015, dated 2019)
# Target: HLA-A*02:01 (Homo sapiens, UniProt P04439, D140Y/D185E/D98H/E176V/E277Q/G131W/G231S/I119V/I121R/I166T/I218V/L300P/L318F/N151K/N90K/P208A/P217A/Q86G/Q94H/R138H/R169H/T345S)
# Test: MHC binding assay: UV-ligand exchange with beta2m ELISA (exchange yield)
# Conditions: binding to HLA-A*02:01, β2m ELISA
# Procedure, shortened: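 Peptide–HLA-A*02:01 complexes formed by UV-induced exchange of a photocleavable ligand for the test peptide. Exchange products diluted 100-fold and captured on streptavidin-coated plates. Stabilized complexes detected with HRP anti-β2m (1 h, 37° C.) and TMB, A450; exchange yield reported.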
row,Substance,"Peptide exchange (MHC class I binding score, peptide exchange yield)"
1,280 (VLPDPEVLEAV; listed as Homo sapiens) [compound 280],“+++” (≥50 = +++)
2,590 (SLIEKLWQT; listed as Homo sapiens) [compound 590],“++” (≥20% = ++)
3,24 (SLSDGLEEV; listed as Homo sapiens) [compound 24],“++” (≥20% = ++)
4,615 (VLPPDTDPA; listed as Homo sapiens) [compound 615],“++” (≥20% = ++)
5,206 (VLQEGKLQKLAQL; listed as Homo sapiens) [compound 206],“+++” (≥50 = +++)
6,597 (KLLEGQVIQL; listed as Homo sapiens) [compound 597],“+++” (≥50 = +++)
7,569 (KLVDRTWTL; listed as Homo sapiens) [compound 569],“+++” (≥50 = +++)
8,55 (SLLDLETLSL; listed as Homo sapiens) [compound 55],“++++” (≥75% = ++++)
9,133 (KVLSNIHTV; listed as Homo sapiens) [compound 133],“++” (≥20% = ++)
10,75 (GLLEVMVNL; listed as Homo sapiens) [compound 75],“+++” (≥50 = +++)
11,386 (ILFRYPLTI; listed as Homo sapiens) [compound 386],“+++” (≥50 = +++)
12,374 (FLLQQHLISA; listed as Homo sapiens) [compound 374],“++” (≥20% = ++)
13,467 (FLAKDFNFL; listed as Homo sapiens) [compound 467],“+++” (≥50 = +++)
14,120 (ALLGIPLTLV; listed as Homo sapiens) [compound 120],“+++” (≥50 = +++)
15,401 (ILLDDTGLAYI; listed as Homo sapiens) [compound 401],“+++” (≥50 = +++)
16,284 (ILLSQTTGV; listed as Homo sapiens) [compound 284],“+++” (≥50 = +++)
17,596 (ALLDQTKTLAESAL; listed as Homo sapiens) [compound 596],“+++” (≥50 = +++)
18,344 (YLQDQHLLLTV; listed as Homo sapiens) [compound 344],“+++” (≥50 = +++)
19,525 (VLLEAGEGLVTI; listed as Homo sapiens) [compound 525],“+++” (≥50 = +++)
20,604 (SILDRDDIFV; listed as Homo sapiens) [compound 604],“+++” (≥50 = +++)
21,395 (ALALGGIAVV; listed as Homo sapiens) [compound 395],“++++” (≥75% = ++++)
22,600 (ALAAPDIVPAL; listed as Homo sapiens) [compound 600],“+++” (≥50 = +++)
23,151 (KILQQLVTL; listed as Homo sapiens) [compound 151],“+++” (≥50 = +++)
24,184 (YLMDINGKMWL; listed as Homo sapiens) [compound 184],“+++” (≥50 = +++)
25,582 (TLCDVILMV; listed as Homo sapiens) [compound 582],“+++” (≥50 = +++)
26,245 (SMIDDLLGV; listed as Homo sapiens) [compound 245],“+++” (≥50 = +++)
27,100 (YLLSTNAQL; listed as Homo sapiens) [compound 100],“++++” (≥75% = ++++)
